According to patent publication US20250051429A1 (Hoffmann-La Roche, published 2025):

B1: gantenerumab (antibody, human IgG1, V domains shown)
VH: QVELVESGGGLVQPGGSLRLSCAASGFTFSSYAMSWVRQAPGKGLEWVSAINASGTRTYYADSVKGRFTISRDNSKNTLYLQMNSLRAEDTAVYYCARGKGNTHKPYGYVRYFDVWGQGTLVTVSS
VL: DIVLTQSPATLSLSPGERATLSCRASQSVSSSYLAWYQQKPGQAPRLLIYGASSRATGVPARFSGSGSGTDFTLTISSLEPEDFATYYCLQIYNMPITFGQGTKVEIK
modifications: glycosylation site in heavy chain CDR2 (NAS); Fab glycosylation (CE-SDS) 30-80 %
notes: kappa light chain; also called parent antibody gantenerumab; wt: NAS
B2: mAb 675 (antibody, V domains shown)
VH: QVELVESGGGLVQPGGSLRLSCAASGFTFSSYAMSWVRQAPGKGLEWVSAINATGTRTYYADSVKGRFTISRDNSKNTLYLQMNSLRAEDTAVYYCARGKGSSGYVRYFDVWGQGTLVTVSS
VL: DIVLTQSPATLSLSPGERATLSCRASQSVSSSYLAWYQQKPGQAPRLLIYGASSRATGVPARFSGSGSGTDFTLTISSLEPEDFATYYCLQIYNMPITFGQGTKVEIK
modifications: glycosylation site in heavy chain CDR2 (NAT); Fab glycosylation (CE-SDS) 100 %
notes: Variant of gantenerumab: heavy chain S53T (Kabat) and shortened heavy chain CDR3, wild-type light chain; Only variable domains are tied to the name; also called 142; gantenerumab VH NAT variant with wild-type light chain
B3: mAb 638 (antibody, V domains shown)
VH: QVELVESGGGLVQPGGSLRLSCAASGFTFSSYAMSWVRQAPGKGLEWVSAIQASGTRTYYADSVKGRFTISRDNSKNTLYLQMNSLRAEDTAVYYCARGKGSSGYVRYFDVWGQGTLVTVSS
VL: DIVLTQSPATLSLSPGERATLSCRASQSVSSSYLAWYQQKPGQAPRLLIYGASSRATGVPARFSGSGSGTDFTLTISSLEPEDFATYYCLQIYNHPITFGQGTKVEIK
modifications: no Fab glycosylation (CE-SDS 0 %)
notes: Variant of gantenerumab: heavy chain N52Q, shortened heavy chain CDR3, light chain M95H (Kabat)
B4: mAb 651 (antibody, V domains shown)
VH: QVELVESGGGLVQPGGSLRLSCAASGFTFSSYAMSWVRQAPGKGLEWVSAINATGTRTYYADSVKGRFTISRDNSKNTLYLQMNSLRAEDTAVYYCARGKGSSGYVRYFDVWGQGTLVTVSS
VL: DIVLTQSPATLSLSPGERATLSCRASQSVSSSYLAWYQQKPGQAPRLLIYGASSRATGVPARFSGSGSGTDFTLTISSLEPEDFATYYCLQIYNHPITFGQGTKVEIK
modifications: glycosylation site in heavy chain CDR2 (NAT); Fab glycosylation (CE-SDS) 100 %
notes: Variant of gantenerumab: heavy chain S53T, shortened heavy chain CDR3, light chain M95H (Kabat); also called 144
B5: mAb 663 (antibody, V domains shown)
VH: QVELVESGGGLVQPGGSLRLSCAASGFTFSSYAMSWVRQAPGKGLEWVSAIQASGTRTYYADSVKGRFTISRDNSKNTLYLQMNSLRAEDTAVYYCARGKGSSGYVRYFDVWGQGTLVTVSS
VL: DIVLTQSPATLSLSPGERATLSCRASQSVSSSYLAWYQQKPGQAPRLLIYGASSRATGVPARFSGSGSGTDFTLTISSLEPEDFATYYCLQIYNMPITFGQGTKVEIK
modifications: no Fab glycosylation (CE-SDS 0 %)
notes: Variant of gantenerumab: heavy chain N52Q (Kabat) and shortened heavy chain CDR3, wild-type light chain; also called 143; gantenerumab VH QAS variant with wild-type light chain

The binders below were run against T1, human A-beta protein, fibrillar A-beta(1-40) coated for the ELISA (human) (assay: ELISA, antibody on coated fibrillar A-beta(1-40)).
T1 construct: also called Aβ1-40 fibers; fibrillar Aβ
T1 sequence (peptide, as listed by the source): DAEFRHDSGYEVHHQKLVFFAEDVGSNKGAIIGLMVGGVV
Protocol: Binding of the antibodies to fibrillar Aβ is measured by an ELISA assay. Briefly, AD(1-40) is coated at 7 μg/mL in PBS onto Maxisorb plates for 3 days at 37° C. to produce fibrillar Abeta, and then dried for 3 h at RT. The plate is blocked with 1% CroteinC and 0.1% RSA in PBS (blocking buffer) for 1 h at RT, then washed once with wash buffer. Antibodies or controls are added at concentrations up to 100 nM in blocking buffer and incubated at 4° C. overnight. After 4 wash steps, constructs are detected by addition of anti-human-IgG-HRP (Jackson Immunoresearch) at 1:10,000 dilution in blocking buffer […], followed by 6 washes and incubation in TMB (Sigma). Absorbance is read out at 450 nm after stopping color development with 1 N HCl.
B1 was tested, and the EC50 was 200 pM. In the case of B2, the EC50 is reported as 200 pM. B3 gave an EC50 of 200 pM. For B4, the EC50 was 4000 pM. Binder B5 has an EC50 of 200 pM.
